Data from patent US20240093255A1, “BIOSYNTHETIC PRODUCTION OF 2-FUCOSYLLACTOSE” (Conagen Inc., priority 2020, published 2024).

Tests used:
[1] = FutC candidate activity in vitro using the de novo synthesis pathway (2′-FL by HPLC); type: biochemical; conditions: 0.2 mg/mL fucosyltransferase, 1 mM GDP-mannose, 80 mM lactose, room temperature, 16 hours
Procedure: The final step in the novel path to 2′-FL requires an α-1,2-fucosyltransferase. Various FutC candidates were screened for soluble expression in E. coli and fucosyltransferase activity. The candidate enzymes show different solubilities and enzymatic activity for 2′-FL synthesis. For the candidates that have highly soluble expression, their activity was tested in vitro using the de novo synthesis pathway. The reaction conditions were: 50 mM Tris-HCl pH 8.0, 2 mM NADPH, 0.1 mM NADP^+, 1 mM GDP-mannose, 80 mM lactose, 0.9 mg/mL Ec Gmd (SEQ 11), 0.2 mg/mL Ec WcaG (SEQ ID NO: 7) and 0.2 mg/mL of the fucosyltransferase candidates. The reactions were incubated at room temperature for 16 hours. The reactions were quenched by heating at 99° C. for 10 minutes, and then analyzed by HPLC.

[2] = GDP-L-fucose inhibition assay of GMD enzymes (GDP-4-keto-6-deoxymannose detection); type: biochemical; conditions: 350 μM GDP-L-fucose; 1 mM GDP-mannose, 0.5 mg/mL GMD
Procedure: To test for inhibition, the mutants were expressed and purified as described in Example 7, and assayed at a range of GDP-L-fucose concentrations. The assay conditions were as follows: 50 mM Tris pH 7.5, 1 mM GDP-mannose, 0.5 mM NADP^+, 0.5 mg/mL dehydratase (GMD) enzyme, and 0 μM, 70 μM or 350 μM GDP-L-fucose. The reactions were quenched at 99° C. for 10 minutes, and the enzymes' respective activities were analyzed using the nucleotide sugar LC-MS method by GDP-4-keto-6-deoxymannose detection.

| Molecule | retained activity [2] | also measured |
| --- | --- | --- |
| FutC2: α-1,2-fucosyltransferase candidate from Pisciglobus halotolerans, SEQ ID NO: 23 (protein, Pisciglobus halotolerans) MIYTRITSGLGNQMFQYAIAYSYSRKYDMPLILDLTNFKISKKRTYQLDKFKLNDYKKITFKNAPLEIKIFWLVEVLNMISIKLRKKEMKRKNNYNLKSTQFICEKYKEKYNINFDLTNKSLYLSGFWQSPLYFENYRDELIQQFSPNYVLSNKLKEYETKIINCRSVSVHIRRGDFLQHGLFKDVDYQKKAITYLEKKLDNPIFFFFSDDIEWTKEKFKNQKNCFFVSSDSKNSGIEEMYLMSKCENNIIANSTFSWWGAWLNQNQNKIVIAPSTGFGNKDILPKSWYTI |  | α-1,2-fucosyltransferase activity for 2′-FL production [1]: have α-1,2-fucosyltransferase activity for 2′-FL production |
| FutC5: α-1,2-fucosyltransferase candidate from Lachnospiraceae bacterium XBB2008, SEQ ID NO: 29; parent of ASR12 (protein, Lachnospiraceae bacterium XBB2008, parent of ASR12) MIILQMSGGLGNQMFQYALYLKLKKLGREVKFDDETSYELDNARPVQLAVFDITYPRATRQEVTDMRDSSPAWKDRIRRKLKGRNLKQYTEANYSYDEHVFELDDTYLRGYFQTEKYFSDIRDEIYKTYTMRKDLITEQTTQYEEDILSHENSVSIHIRRGDYMTIEGGEIYAGICTDEFYDSAIKYVLERHPDAVFYLFTNDSSWAEYFCNIHSDVNIHVVEGNTEYFGYLDMYLMSRCKHHIVANSSFSWWGAWLGRDADGMVIAPDPWFNCSNCADIHTDRMILIDPKGELLTDDKGVRNESEE |  | α-1,2-fucosyltransferase activity for 2′-FL production [1]: have α-1,2-fucosyltransferase activity for 2′-FL production |
| FutC10: α-1,2-fucosyltransferase candidate from Thermosynechococcus elongatus, SEQ ID NO: 39 (protein, listed as Thermosynechococcus elongatus) MIIVRLCGGLGNQMFQYAAGLAAAHRIGSEVKFDTHWFDATCLHQGLELRRVFGLELPEPSSKDLRKVLGACVHPAVRRLLSRRLLRALRPKSLVIQPHFHYWTGFEHLTDNVYLEGYWQSERYFSNIADIIRQQFRFVEPLDPHNAALMDEMQSGVSVSLHIRRGDYFNNPQMRRVHGVDLSEYYPAAVATMIEKTNAERFYVFSDDPQWVLEHLKLPVSYTVVDHNRGAASYRDMQLMSACRHHIIANSTFSWWGAWLNPRPDKVVIAPRHWFNVDVFDTRDLYCPEWIVL |  | α-1,2-fucosyltransferase activity for 2′-FL production [1]: have α-1,2-fucosyltransferase activity for 2′-FL production |
| Ec WT: GDP-mannose-4,6-dehydratase from Escherichia coli, wild type, SEQ ID NO: 11 (protein, listed as Escherichia coli) MSKVALITGVTGQDGSYLAEFLLEKGYEVHGIKRRASSFNTERVDHIYQDPHTCNPKFHLHYGDLSDTSNLTRILREVQPDEVYNLGAMSHVAVSFESPEYTADVDAMGTLRLLEAIRFLGLEKKTRFYQASTSELYGLVQEIPQKETTPFYPRSPYAVAKLYAYWITVNYRESYGMYACNGILFNHESPRRGETFVTRKITRAIANIAQGLESCLYLGNMDSLRDWGHAKDYVKMQWMMLQQEQPEDFVIATGVQYSVRQFVEMAAAQLGIKLRFEGTGVEEKGIVVSVTGHDAPGVKPGDVIIAVDPRYFRPAEVETLLGDPTKAHEKLGWKPEITLREMVSEMVANDLEAAKKHSLLKSHGYDVAIALES |  | decrease in activity [2]: 80% |
| At GMD M4: mutant Arabidopsis thaliana GMD targeting the GDP-L-fucose allosteric binding pocket, SEQ ID NO: 79 (protein, Arabidopsis thaliana GMD mutant) MASENNGSRSDSESITAPKADSTVVEPRKIALITGITGQDGSYLTEFLLGKGYEVHGLIRRSSNFNTQRINHIYIDPHNVNKALMKLHYADLTDASSLRRWIDVIKPDEVYNLAAQSHVAVSFEIPDYTADVVATGALRLLEAVRSHTIDSGRTVKYYQAGSSEMFGSTPPPQSETTPFHPRSPYAASKCAAHWYTVNYREAYGLFACNGILFNHESPRRGENFVTRKITAALGRIKVGLQTKLFLGNLQASRDWGFAGDYVEAMWLMLQQEKPDDYVVATEEGHTVEEFLDVSFGYLGLNWKDYVEIDQRYFRPAEVDNLQGDASKAKEVLGWKPQVGFEKLVKMMVDEDLELAKREKVLVDAGYMDAKQQP | 100% |  |
| At GMD M3: mutant Arabidopsis thaliana GMD targeting the GDP-L-fucose allosteric binding pocket, SEQ ID NO: 77 (protein, Arabidopsis thaliana GMD mutant) MASENNGSRSDSESITAPKADSTVVEPRKIALITGITGQDGSYLTEFLLGKGYEVHGLIRRSSNFNTQRINHIYIDPHNVNKALMKLHYADLTDASSLRRWIDVIKPDEVYNLAAQSHVAVSFEIPDYTADVVATGALRLLEAVRSHTIDSGRTVKYYQAGSSEMFGSTPPPQSETTPFHPRSPYAASKCAAHWYTVNYREAYGLFACNGILFNHESPRRGENFVTRAITRALGRIKVGLQTKLFLGNLQASRDWGFAGDYVEAMWLMLQQEKPDDYVVATEEGHTVEEFLDVSFGYLGLNWKDYVEIDQRYFRPAEVDNLQGDASKAKEVLGWKPQVGFEKLVKMMVDEDLELAKREKVLVDAGYMDAKQQP | 50% |  |
| At GMD M2: mutant Arabidopsis thaliana GMD targeting the GDP-L-fucose allosteric binding pocket, SEQ ID NO: 75 (protein, Arabidopsis thaliana GMD mutant) MASENNGSRSDSESITAPKADSTVVEPRKIALITGITGQDGSYLTEFLLGKGYEVHGLIRRSSNFNTQRINHIYIDPANVNKALMKLHYADLTDASSLRRWIDVIKPDEVYNLAAQSHVAVSFEIPDYTADVVATGALRLLEAVRSHTIDSGRTVKYYQAGSSEMFGSTPPPQSETTPFHPRSPYAASKCAAHWYTVNYREAYGLFACNGILFNHESPRRGENFVTRKITRALGRIKVGLQTKLFLGNLQASRDWGFAGDYVEAMWLMLQQEKPDDYVVATEEGHTVEEFLDVSFGYLGLNWKDYVEIDQRYFRPAEVDNLQGDASKAKEVLGWKPQVGFEKLVKMMVDEDLELAKREKVLVDAGYMDAKQQP | 40% |  |
| Hs GMD wild type: GDP-mannose-4,6-dehydratase from Homo sapiens, wild type, SEQ ID NO: 9 (protein, listed as Homo sapiens) MRNVALITGITGQDGSYLAEFLLEKGYEVHGIVRRSSSFNTGRIEHLYKNPQAHIEGNMKLHYGDLTDSTCLVKIINEVKPTEIYNLGAQSHVKISFDLAEYTADVDGVGTLRLLDAVKTCGLINSVKFYQASTSELYGKVQEIPQKETTPFYPRSPYGAAKLYAYWIVVNFREAYNLFAVNGILFNHESPRRGANFVTRKISRSVAKIYLGQLECFSLGNLDAKRDWGHAKDYVEAMWLMLQNDEPEDFVIATGEVHSVREFVEKSFLHIGKTIVWEGKNENEVGRCKETGKVHVTVDLKYYRPTEVDFLQGDCTKAKQKLNWKPRVAFDELVREMVHADVELMRTNPNA | less than 5% |  |
| Hs GMD M4: mutant human GMD targeting the GDP-L-fucose allosteric binding pocket, SEQ ID NO: 85 (protein, Homo sapiens GMD mutant) MRNVALITGITGQDGSYLAEFLLEKGYEVHGIVRRSSSFNTGRIEHLYKNPQAHIEGNMKLHYGDLTDSTCLVKIINEVKPTEIYNLGAQSHVKISFDLAEYTADVDGVGTLRLLDAVKTCGLINSVKFYQASTSELYGKVQEIPQKETTPFYPRSPYGAAKLYAYWIVVNFREAYNLFAVNGILFNHESPRRGANFVTRKISASVAKIYLGQLECFSLGNLDAKRDWGHAKDYVEAMWLMLQNDEPEDFVIATGEVHSVREFVEKSFLHIGKTIVWEGKNENEVGRCKETGKVHVTVDLKYYRPTEVDFLQGDCTKAKQKLNWKPRVAFDELVREMVHADVELMRTNPNA | 100% |  |
| Hs GMD M3: mutant human GMD targeting the GDP-L-fucose allosteric binding pocket, SEQ ID NO: 83 (protein, Homo sapiens GMD mutant) MRNVALITGITGQDGSYLAEFLLEKGYEVHGIVRRSSSFNTGRIEHLYKNPQAHIEGNMKLHYGDLTDSTCLVKIINEVKPTEIYNLGAQSHVKISFDLAEYTADVDGVGTLRLLDAVKTCGLINSVKFYQASTSELYGKVQEIPQKETTPFYPRSPYGAAKLYAYWIVVNFREAYNLFAVNGILFNHESPRRGANFVTRAISRSVAKIYLGQLECFSLGNLDAKRDWGHAKDYVEAMWLMLQNDEPEDFVIATGEVHSVREFVEKSFLHIGKTIVWEGKNENEVGRCKETGKVHVTVDLKYYRPTEVDFLQGDCTKAKQKLNWKPRVAFDELVREMVHADVELMRTNPNA | 100% |  |
| Hs GMD M2: mutant human GMD targeting the GDP-L-fucose allosteric binding pocket, SEQ ID NO: 81 (protein, Homo sapiens GMD mutant) MRNVALITGITGQDGSYLAEFLLEKGYEVHGIVRRSSSFNTGRIEHLYKNPQAAIEGNMKLHYGDLTDSTCLVKIINEVKPTEIYNLGAQSHVKISFDLAEYTADVDGVGTLRLLDAVKTCGLINSVKFYQASTSELYGKVQEIPQKETTPFYPRSPYGAAKLYAYWIVVNFREAYNLFAVNGILFNHESPRRGANFVTRKISRSVAKIYLGQLECFSLGNLDAKRDWGHAKDYVEAMWLMLQNDEPEDFVIATGEVHSVREFVEKSFLHIGKTIVWEGKNENEVGRCKETGKVHVTVDLKYYRPTEVDFLQGDCTKAKQKLNWKPRVAFDELVREMVHADVELMRTNPNA | 80% |  |
